The values below are quoted from earlier work in paper PMC11817637.

For series [1], the target named is RyR1 (Oryctolagus cuniculus) (UniProt P11716).
The target in another series is RyR1 (UniProt P21817).
Chain of UniProt P21817 (P21817 whole entry): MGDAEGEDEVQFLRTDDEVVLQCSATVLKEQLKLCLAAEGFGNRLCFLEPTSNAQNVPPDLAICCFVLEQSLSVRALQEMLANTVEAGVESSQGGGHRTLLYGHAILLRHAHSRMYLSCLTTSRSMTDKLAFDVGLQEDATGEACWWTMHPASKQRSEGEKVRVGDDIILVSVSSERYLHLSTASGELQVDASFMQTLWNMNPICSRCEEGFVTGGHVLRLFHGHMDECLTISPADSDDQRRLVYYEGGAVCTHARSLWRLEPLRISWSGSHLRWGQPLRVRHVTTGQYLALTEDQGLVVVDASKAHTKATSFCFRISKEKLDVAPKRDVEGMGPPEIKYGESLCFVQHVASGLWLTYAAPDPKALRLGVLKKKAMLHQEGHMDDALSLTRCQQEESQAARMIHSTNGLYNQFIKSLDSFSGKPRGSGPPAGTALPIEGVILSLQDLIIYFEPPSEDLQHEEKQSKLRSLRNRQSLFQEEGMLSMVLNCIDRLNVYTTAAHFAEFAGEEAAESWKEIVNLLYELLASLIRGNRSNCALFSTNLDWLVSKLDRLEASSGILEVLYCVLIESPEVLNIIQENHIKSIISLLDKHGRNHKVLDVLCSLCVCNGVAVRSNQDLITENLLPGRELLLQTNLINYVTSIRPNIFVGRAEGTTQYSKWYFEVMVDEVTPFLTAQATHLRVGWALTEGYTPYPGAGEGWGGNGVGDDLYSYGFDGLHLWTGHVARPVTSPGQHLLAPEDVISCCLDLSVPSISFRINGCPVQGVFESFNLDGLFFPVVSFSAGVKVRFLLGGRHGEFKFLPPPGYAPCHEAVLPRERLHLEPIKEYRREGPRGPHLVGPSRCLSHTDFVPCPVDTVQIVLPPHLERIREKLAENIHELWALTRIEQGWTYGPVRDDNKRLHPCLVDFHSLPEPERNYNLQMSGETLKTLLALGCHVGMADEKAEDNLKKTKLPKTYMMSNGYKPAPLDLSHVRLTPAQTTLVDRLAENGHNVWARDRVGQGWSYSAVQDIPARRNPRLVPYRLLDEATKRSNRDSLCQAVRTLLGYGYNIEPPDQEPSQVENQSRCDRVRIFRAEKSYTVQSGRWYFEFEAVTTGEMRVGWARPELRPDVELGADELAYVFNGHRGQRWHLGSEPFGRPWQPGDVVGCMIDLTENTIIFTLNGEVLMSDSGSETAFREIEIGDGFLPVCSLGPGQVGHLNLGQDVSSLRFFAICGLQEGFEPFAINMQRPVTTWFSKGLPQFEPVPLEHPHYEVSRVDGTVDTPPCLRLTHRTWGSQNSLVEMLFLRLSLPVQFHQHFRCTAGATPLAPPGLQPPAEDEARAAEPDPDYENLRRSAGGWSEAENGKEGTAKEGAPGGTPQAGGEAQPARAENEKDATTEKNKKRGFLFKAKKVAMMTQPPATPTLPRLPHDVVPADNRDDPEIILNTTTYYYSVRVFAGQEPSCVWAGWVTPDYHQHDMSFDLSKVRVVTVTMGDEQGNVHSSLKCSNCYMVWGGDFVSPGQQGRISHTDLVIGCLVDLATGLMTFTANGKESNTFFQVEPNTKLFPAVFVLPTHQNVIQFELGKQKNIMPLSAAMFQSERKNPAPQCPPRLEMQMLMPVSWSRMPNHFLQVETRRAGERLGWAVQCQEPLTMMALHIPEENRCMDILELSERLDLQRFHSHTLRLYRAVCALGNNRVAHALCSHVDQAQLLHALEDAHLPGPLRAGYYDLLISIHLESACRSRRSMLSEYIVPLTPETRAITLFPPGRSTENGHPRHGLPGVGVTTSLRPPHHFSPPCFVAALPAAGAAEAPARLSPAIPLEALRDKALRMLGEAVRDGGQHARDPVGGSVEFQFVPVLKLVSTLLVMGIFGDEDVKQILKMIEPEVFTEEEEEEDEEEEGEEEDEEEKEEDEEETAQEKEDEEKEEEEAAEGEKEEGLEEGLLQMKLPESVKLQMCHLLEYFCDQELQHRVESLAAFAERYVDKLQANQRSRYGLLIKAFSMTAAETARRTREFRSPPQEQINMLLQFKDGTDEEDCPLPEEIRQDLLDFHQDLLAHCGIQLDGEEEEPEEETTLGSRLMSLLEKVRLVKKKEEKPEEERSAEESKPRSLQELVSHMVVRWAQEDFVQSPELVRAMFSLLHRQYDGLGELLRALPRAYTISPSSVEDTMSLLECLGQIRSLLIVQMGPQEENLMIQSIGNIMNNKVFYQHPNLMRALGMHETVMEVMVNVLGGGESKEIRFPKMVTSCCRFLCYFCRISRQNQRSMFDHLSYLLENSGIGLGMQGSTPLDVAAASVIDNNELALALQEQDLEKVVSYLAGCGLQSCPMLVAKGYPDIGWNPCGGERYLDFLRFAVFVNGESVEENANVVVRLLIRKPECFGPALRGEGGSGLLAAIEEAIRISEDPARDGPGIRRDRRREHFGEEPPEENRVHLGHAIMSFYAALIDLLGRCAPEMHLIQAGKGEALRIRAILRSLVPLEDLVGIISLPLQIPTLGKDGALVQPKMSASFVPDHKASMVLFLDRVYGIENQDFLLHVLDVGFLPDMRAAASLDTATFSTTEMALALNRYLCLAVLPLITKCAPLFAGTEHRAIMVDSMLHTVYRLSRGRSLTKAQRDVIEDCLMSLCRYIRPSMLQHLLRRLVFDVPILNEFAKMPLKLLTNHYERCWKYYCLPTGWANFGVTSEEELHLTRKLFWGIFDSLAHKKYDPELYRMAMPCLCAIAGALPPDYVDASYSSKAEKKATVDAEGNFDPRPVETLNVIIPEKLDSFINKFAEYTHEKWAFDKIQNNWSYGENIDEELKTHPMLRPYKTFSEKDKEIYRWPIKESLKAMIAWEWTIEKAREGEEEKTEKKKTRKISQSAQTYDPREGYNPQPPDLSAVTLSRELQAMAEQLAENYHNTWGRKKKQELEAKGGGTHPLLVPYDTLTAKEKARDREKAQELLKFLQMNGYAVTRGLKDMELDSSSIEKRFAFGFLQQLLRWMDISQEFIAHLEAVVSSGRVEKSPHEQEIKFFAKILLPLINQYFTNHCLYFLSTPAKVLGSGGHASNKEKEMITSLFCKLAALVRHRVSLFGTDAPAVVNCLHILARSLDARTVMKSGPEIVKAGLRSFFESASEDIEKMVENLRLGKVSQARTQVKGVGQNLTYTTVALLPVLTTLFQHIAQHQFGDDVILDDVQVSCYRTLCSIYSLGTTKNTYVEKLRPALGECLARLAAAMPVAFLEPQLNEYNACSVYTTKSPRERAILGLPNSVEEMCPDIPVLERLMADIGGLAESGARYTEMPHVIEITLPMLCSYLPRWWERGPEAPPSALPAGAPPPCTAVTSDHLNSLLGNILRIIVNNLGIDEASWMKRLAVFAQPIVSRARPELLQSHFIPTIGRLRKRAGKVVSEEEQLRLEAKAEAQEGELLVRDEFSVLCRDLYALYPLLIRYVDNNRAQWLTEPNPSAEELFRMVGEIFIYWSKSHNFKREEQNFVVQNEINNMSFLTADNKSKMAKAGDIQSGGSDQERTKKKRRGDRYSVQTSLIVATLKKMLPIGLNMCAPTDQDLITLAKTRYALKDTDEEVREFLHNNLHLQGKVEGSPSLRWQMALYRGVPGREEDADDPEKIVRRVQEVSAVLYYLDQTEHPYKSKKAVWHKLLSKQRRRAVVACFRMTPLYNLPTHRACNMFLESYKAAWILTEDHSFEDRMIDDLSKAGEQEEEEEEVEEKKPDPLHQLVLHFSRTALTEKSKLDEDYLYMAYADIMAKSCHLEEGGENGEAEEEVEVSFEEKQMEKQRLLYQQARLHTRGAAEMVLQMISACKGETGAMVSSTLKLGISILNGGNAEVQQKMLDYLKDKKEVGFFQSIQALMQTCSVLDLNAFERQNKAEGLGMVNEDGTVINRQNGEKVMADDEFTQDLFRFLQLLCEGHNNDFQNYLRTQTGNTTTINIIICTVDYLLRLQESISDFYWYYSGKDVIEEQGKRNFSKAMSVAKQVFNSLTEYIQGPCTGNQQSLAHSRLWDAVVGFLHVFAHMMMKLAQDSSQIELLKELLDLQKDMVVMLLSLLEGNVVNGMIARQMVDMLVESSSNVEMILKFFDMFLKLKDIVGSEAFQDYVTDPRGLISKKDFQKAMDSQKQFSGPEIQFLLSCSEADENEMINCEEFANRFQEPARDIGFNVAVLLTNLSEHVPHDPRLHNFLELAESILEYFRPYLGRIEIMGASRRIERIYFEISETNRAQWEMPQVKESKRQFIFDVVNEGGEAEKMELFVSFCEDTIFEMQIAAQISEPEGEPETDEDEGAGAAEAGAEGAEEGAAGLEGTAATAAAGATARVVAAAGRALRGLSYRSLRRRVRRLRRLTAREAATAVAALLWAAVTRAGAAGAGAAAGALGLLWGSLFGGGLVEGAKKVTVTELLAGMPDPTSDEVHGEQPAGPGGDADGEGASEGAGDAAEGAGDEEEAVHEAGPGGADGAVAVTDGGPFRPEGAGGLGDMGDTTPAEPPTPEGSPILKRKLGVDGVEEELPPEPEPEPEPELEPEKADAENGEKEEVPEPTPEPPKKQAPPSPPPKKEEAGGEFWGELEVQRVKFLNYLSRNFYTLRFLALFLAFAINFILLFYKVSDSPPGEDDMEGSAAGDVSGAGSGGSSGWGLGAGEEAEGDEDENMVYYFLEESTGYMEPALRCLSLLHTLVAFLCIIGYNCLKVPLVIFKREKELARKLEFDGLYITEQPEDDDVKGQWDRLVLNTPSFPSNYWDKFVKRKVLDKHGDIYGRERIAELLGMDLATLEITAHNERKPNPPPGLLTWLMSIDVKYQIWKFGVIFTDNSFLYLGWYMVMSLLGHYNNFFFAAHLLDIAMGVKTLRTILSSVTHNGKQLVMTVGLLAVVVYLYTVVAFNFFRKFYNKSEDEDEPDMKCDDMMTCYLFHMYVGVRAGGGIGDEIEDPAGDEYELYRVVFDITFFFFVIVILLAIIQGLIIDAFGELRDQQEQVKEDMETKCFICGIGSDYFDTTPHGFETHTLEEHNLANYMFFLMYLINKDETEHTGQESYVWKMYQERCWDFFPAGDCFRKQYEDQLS

Broadly, the Kd is the concentration at which binding is half-saturated. Take FKBP12 (from UniProt P62943): the Kd in series [1] is 2.6 nM.

Regarding FKBP12 (from UniProt P62942), the equilibrium dissociation constant (Kd) in the series with RyR1 was 100 nM.
